Laboratory results taken from publication PMC2922928 (Nature structural & molecular biology, 2010).

Columns and labels:
Experiment in all cases: ELISA
[1] = biological target: Flag-p53 purified from insect cells (unacetylated) (human, UniProt P04637 1-393)
[2] = biological target: His-tagged p53 purified from bacteria (human, UniProt P04637 1-393)
[3] = biological target: His-tagged p53(ΔC30) purified from bacteria (human, UniProt P04637 1-363)

Measured: binding result

B1: untagged Mdm2(10–139) (domain or fragment)
chain: GSMTDGAVTTSQIPASEQETLVRPKPLLLKLLKSVGAQKDTYTMKEVLFYLGQYIMTKRLYDEKQQHIVYCSNDLLGDLFGVPSFSVKEHRKIYTMIYRNLVVVNQQESSDSGTSVSENRCHLEGGSDQKDLV
binds: all assays above
